Tests used:
[1] = target: T1, full-length human LAG-3 on cells (human, UniProt P18627 23-525); assay: FACS competition on Flp-In-293 cells expressing human LAG-3: biotinylated BMK5 at 1 ug/mL, serially diluted antibody, Streptavidin-PE
T1 construct: Expressed on Flp-In-293, CHO or 293F transfectants; also called hPro1.FL; cell surface human LAG-3
T1 sequence: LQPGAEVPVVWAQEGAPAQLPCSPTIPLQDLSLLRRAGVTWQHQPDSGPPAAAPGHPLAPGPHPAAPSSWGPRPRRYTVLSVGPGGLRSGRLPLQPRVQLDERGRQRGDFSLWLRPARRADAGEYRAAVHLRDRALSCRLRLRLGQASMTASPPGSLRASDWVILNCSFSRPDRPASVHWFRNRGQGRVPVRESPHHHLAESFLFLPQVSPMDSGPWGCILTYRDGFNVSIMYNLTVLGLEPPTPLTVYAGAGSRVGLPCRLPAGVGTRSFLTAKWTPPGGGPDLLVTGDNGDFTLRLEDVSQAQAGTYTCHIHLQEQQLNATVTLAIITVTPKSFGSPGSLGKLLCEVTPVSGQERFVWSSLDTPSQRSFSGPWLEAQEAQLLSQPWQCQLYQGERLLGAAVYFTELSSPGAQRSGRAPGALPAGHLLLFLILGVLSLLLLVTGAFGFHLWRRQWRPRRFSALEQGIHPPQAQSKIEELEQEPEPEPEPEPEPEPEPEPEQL
Procedure: (§1) The binding epitope of LAG-3 antibodies was binned against benchmark antibodies BMK1, BMK7 and BMK5 by FACS assay. Flp-In-293 cells expressing human LAG-3 at the cell surface were incubated with biotinylated benchmark antibodies at concentration of 1 μg/mL for 1 hour, followed by the adding of serially diluted LAG-3 antibodies. Streptavidin-PE antibody (Jackson Immunoresearch Lab) was used to detect the binding of benchmark antibodies to cells. The MFI was evaluated by flow cytometry and analyzed by FlowJo.

[2] = target: T2, full-length mouse LAG-3 on cells (mouse, UniProt Q61790 24-521); assay: FACS on murine LAG-3-expressing Flp-In-CHO cells, MFI
T2 construct: also called mPro1.FL; murine LAG-3
T2 sequence: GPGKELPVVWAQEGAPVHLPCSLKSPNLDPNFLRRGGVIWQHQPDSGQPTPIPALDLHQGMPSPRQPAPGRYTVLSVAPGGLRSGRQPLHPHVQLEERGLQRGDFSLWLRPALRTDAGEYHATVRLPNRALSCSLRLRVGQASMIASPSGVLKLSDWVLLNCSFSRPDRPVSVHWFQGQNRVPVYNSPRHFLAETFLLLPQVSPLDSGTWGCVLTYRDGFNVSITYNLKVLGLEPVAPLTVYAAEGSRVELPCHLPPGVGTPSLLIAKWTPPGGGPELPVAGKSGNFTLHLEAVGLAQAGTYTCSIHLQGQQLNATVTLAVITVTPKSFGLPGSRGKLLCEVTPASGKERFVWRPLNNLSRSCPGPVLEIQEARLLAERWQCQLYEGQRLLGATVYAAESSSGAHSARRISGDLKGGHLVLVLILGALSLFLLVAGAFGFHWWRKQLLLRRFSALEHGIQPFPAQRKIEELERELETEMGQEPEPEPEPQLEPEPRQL
Procedure: Cross-reactivity to cynomolgus and murine LAG-3 was measured by FACS. Murine LAG-3-expressing Flp-In-CHO cells or cynomolgus LAG-3-expressing 293F cells were transferred into 96-well U-bottom plates at a density of 1×10⁵ cells/well. Testing antibodies were serially diluted in wash buffer (1×PBS/1%BSA) and incubated with cells at 4° C. for 1 h. After washing with 1×PBS/1%BSA, corresponding secondary antibody was applied and incubated with cells at 4 ° C. in the dark for 1 h. The cells were then washed and resuspended in 1×PBS/1%BSA and then analyzed by flow cytometry.

[3] = target: T1, full-length human LAG-3 on cells; assay: FACS competition on Flp-In-293 cells expressing human LAG-3: biotinylated BMK1 at 1 ug/mL, serially diluted antibody, Streptavidin-PE
Procedure: as §1

Variant 7: xPro1.FL-x7 = target: T3, Variant 7: xPro1.FL-x7 (human; mouse); assay: FACS, 1 ug/mL antibody, transfected 293F cells
T3 construct: Chimeric full-length LAG-3 on transfected 293F cells
T3 chain: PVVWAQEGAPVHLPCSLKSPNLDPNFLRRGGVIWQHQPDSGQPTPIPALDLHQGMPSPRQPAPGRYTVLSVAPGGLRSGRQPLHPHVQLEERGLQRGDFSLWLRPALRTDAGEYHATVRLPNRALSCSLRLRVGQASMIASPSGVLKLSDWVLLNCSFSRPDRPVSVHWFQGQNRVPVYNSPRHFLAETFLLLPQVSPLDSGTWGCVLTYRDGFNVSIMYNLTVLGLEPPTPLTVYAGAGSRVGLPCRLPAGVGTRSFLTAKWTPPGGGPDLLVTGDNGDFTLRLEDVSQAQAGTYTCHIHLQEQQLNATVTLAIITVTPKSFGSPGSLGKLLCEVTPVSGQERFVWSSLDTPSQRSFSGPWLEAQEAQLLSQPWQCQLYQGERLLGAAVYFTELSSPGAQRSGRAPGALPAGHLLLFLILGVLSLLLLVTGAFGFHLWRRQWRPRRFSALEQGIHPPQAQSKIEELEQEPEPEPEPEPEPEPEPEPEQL

- IC50 (read off the curve) [1]: ~1 nM
- binding result [2]: no binding (tested: 6.7 nM)
- IC50 (read off the curve) [3]: ~5 nM
- MFI (Variant 7: xPro1.FL-x7): 39.3
- PE+ % (Variant 7: xPro1.FL-x7): 1.52%
B1: 1.53.3-uAb-IgG4k (antibody, V domains shown)
VH: QVQLQQWGAGLLKPSETLSLTCGVYGGSFSGYYWSWIRQPPGMGLEWIGEINHRGNTNYNPSLKSRVTISEDTSKNQFSLRLSSVTAADTAVYFCTRGEDYSDYDYYGDFWGQGTLVTVSS
VL: EIVLTQSPATLSLSQGERATLSCRASQSISSYLAWYQQKPGQAPRLLIYAASNRATGIPARFSGSGSGTDFTLTISSLEPEDFAIYYCQQRSNWPLTFGGGTKVEIK
notes: Fully human antibody from OMT rats; IgG4 kappa by its name

Source: patent US20200407442A1 (WUXI BIOLOGICS IRELAND, published 2020)
